The test concerns the target G6PD Meyer (Arg219Gly) (human) (UniProt P11413). Nature of the test: SEC; Superdex 200 Increase 10/300, 100 µg recombinant protein loaded, 50 mM Tris-HCl pH 7.5, 150 mM NaCl, 0.5 ml/min; column calibrated with Gel Filtration Standard (Biorad).

One may read the stoichiometry N as a count of units in the complex or per binding partner. As for “G6PD Meyer (Arg219Gly) (from UniProt P11413-3 1-545) (enzyme)”, the stoichiometry N was found to be 2.

The values are drawn from paper PMC10709299.
